Results as given in the supplement of paper PMC12042874.
± gives the uncertainty stated by the source.

Test: amyloid nucleation score (Sup35N fusion, yeast selection) (log enrichment); library NNK2; higher = more nucleation; inactive = no reads after selection
Outline: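 The nucleation score is a DiMSum log enrichment of output over input reads, centred on the mode score of non-aggregating sequences. Sequences under 100 input reads were excluded, and reads came from Illumina sequencing of plasmid inserts. Psi-negative yeast expressing Sup35N fused to peptides of 20 random codons were induced with 100 μM copper sulfate for 24 hours and grown 7 days at 30°C on medium lacking adenine and uracil. Random libraries had three technical output replicates.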

In order of rising amyloid nucleation score:
1. SWINLQVS  -1.5 ± 0.75
2. SYTSAYSRYIWRHQIIMGKK  -1.11 ± 0.42
3. SVFVYYGFQENSAFSIWLAP  -0.96 ± 0.54
4. STMAFWSYHGWCYGVLIL  -0.898 ± 0.61
5. SYGLLKYGI  -0.891 ± 0.35
6. SVVGSYYI  -0.878 ± 0.36
7. TCVVIQGIRGWGWMSVSFMP  -0.829 ± 0.63
8. SVLSLFWLFTDFLVVSHDIL  -0.784 ± 1.1
9. SVSIPCNNCCRLLCRMFKLC  -0.716 ± 0.28
10. STWLS  -0.626 ± 1.1
11. SWQDSLYRAQCFLCSWSKTV  -0.575 ± 0.34
12. SVYHLRLI  -0.494 ± 0.42
13. SVNFSANRRNIDGFERAGPA  -0.476 ± 1.1
14. SWPPKAQLMAVARCSAREAD  -0.337 ± 1.1
15. TAFVSHL  -0.288 ± 1.1
16. SYFLGFVRYAVILSGMLLST  -0.281 ± 0.56
17. SYYSNSLVGDFPVPISNSVM  -0.249 ± 1.1
18. SYWKTSKCMTKLLGCNM  -0.243 ± 0.45
19. TCLRSIVVVFLALGLDSFFW  -0.177 ± 0.3
20. SWWYSKELKSRSAILATMMK  -0.151 ± 0.28
21. STQLDSKILINLRFFRMSIV  -0.081 ± 1.1
22. SYSPSVQ  -0.043 ± 0.55
23. TCGYGLSWLSGSPSMIMWMW  0.009 ± 0.63
24. SWLYIQFFNLVLKTIVGLGV  0.026 ± 1.1
25. TCLMDGSTCTRFGGPLEPMC  0.028 ± 0.79
26. SVFVGLRLGKAS  0.11 ± 0.28
27. SVCSSRGDAMSGVLPCAGGL  0.124 ± 0.55
28. SVVRTRTRTVRVMETWISVW  0.237 ± 1
29. STIEAGCTVVCA  0.24 ± 0.49
30. TCSSPTMKSYMNHCLHVDSF  0.516 ± 0.47
31. TAYSA  0.521 ± 0.41
32. SVWPGRSAEASRFGFGAGAD  0.528 ± 0.49
33. SYCSL  0.548 ± 0.38
34. STRLEVLKLERKIMSSKLFL  0.699 ± 0.18
35. SVGMKLRREEFGRSAVRAVL  0.901 ± 0.28
36. SVTRRVSYRSYLVLVGEWKQ  0.901 ± 0.32
37. TDANESDR  0.905 ± 0.36
38. SVRAVRMWIMDRNAARRMSG  0.997 ± 0.17
39. STSSKVGVEAYTRDDRHLLS  1.01 ± 0.19
40. SVFAKGISAVLLGACLRIAA  1.03 ± 0.25
41. SWGLRTWF  1.06 ± 0.39
42. SYRELIYRDWLYRHVTL  1.1 ± 0.11
43. SYKMGEFTTFSLSRICK  1.12 ± 0.27
44. TCCKLEDSYSWSALKLTSLA  1.27 ± 0.35
45. SVYLNPHPTLMGNQSVLKLI  1.29 ± 0.66
46. STKVR  1.3 ± 0.32
47. STWPIGPSCSLIVCREDCET  1.45 ± 0.34
48. TAHHITSVWYVVLVRLRFRQ  1.76 ± 0.35
49. SVNNHGRLYVWLERLSYTTF  2.24 ± 0.14
50. TAKHDYFLSEESRRLYSSKY  2.31 ± 0.063
51. TDDMCYSEMYIRCVRLFEIV  2.34 ± 0.11
52. SYADRVILLVSCVVPWAPLR  3.31 ± 0.15
53. TAGSTSSEADISLF  4.02 ± 0.13
54. SVEFVLMRLGQLT  4.18 ± 0.058
55. STMVVRVFIGNVFMSFNMIR  4.36 ± 0.059
56. TAVERVSTR  4.94 ± 0.08
57. TAVCKISPQQWAGCHLIHRH  5.3 ± 0.095
58. STILTSVFMFWVCGCFNNKT  7.03 ± 0.078
59. SVINYVFMGDHPYHNVIFRF  7.576 ± 0.051
60. SVCLSPYLSLNYFYWWNSKR  8.377 ± 0.046
61. STSIAVANHWVSYFFVSSGL  8.998 ± 0.038

In the case of STSICYFLYRLWSHISLNSL, the amyloid nucleation score is reported as “inactive”.
With SVCFFVLFYIYSYCRHVMKW the amyloid nucleation score was “inactive”.
In the case of SVDSLWQYQSFRALFPCFMS, the amyloid nucleation score is reported as “inactive”.
In the case of SVRHCLSLSSM, the amyloid nucleation score is reported as “inactive”.
In the case of SYSMLIMFFFVIKYRSDFQL, the amyloid nucleation score is reported as “inactive”.
With SYVVGRFNLSRCHLSCGLVS the amyloid nucleation score was “inactive”.
For TAASISIDRTKSMPLSDRMY, the amyloid nucleation score was “inactive”.
For TANLKDSGQSYFKTRSVWTF, the amyloid nucleation score was “inactive”.
